Assay results from PMC5364462.

Target: Myr-GCN4-GFP
Assay: fluorescence correlation spectroscopy (FCS); GFP-tagged membrane control proteins in live cells, same instrument and illumination conditions; cell line not stated; median molecular brightness

Myr-GCN4-GFP
median molecular brightness: 746 cpsm
